From US20190201491A1 come the findings set out here.

The chains are these.
B1: bFGF-21-K91-30KPEG (ligand)
chain: HPIPDSSPLLQFGGQVRQRYLYTDDAQETEAHLEIRADGTVVGAARQSPESLLELKALKPGVIQILGVKTSRFLCQGPDGKLYGSLHFDP[Phe(4-Ac)](PEG 30 kDa)ACSFRELLLEDGYNVYQSETLGLPLRLPPQRSSNRDPAPRGPARFLPLPGLPAAPPDPPGILAPEPPDVGSSDPLSMVEPSYGRSPSYTS
modifications: not fully specified; also: PEG: linear aminooxy-PEG
B2: bFGF-21-Q108-30KPEG G170A (ligand)
chain: HPIPDSSPLLQFGGQVRQRYLYTDDAQETEAHLEIRADGTVVGAARQSPESLLELKALKPGVIQILGVKTSRFLCQGPDGKLYGSLHFDPKACSFRELLLEDGYNVY[Phe(4-Ac)](PEG 30 kDa)SETLGLPLRLPPQRSSNRDPAPRGPARFLPLPGLPAAPPDPPGILAPEPPDVGSSDPLSMVAPSYGRSPSYTS
B3: bFGF-21-Q108-30KPEG G170D (ligand)
chain: HPIPDSSPLLQFGGQVRQRYLYTDDAQETEAHLEIRADGTVVGAARQSPESLLELKALKPGVIQILGVKTSRFLCQGPDGKLYGSLHFDPKACSFRELLLEDGYNVY[Phe(4-Ac)](PEG 30 kDa)SETLGLPLRLPPQRSSNRDPAPRGPARFLPLPGLPAAPPDPPGILAPEPPDVGSSDPLSMVDPSYGRSPSYTS
B4: bFGF-21-G77-30KPEG (ligand)
chain: HPIPDSSPLLQFGGQVRQRYLYTDDAQETEAHLEIRADGTVVGAARQSPESLLELKALKPGVIQILGVKTSRFLCQ[Phe(4-Ac)](PEG 30 kDa)PDGKLYGSLHFDPKACSFRELLLEDGYNVYQSETLGLPLRLPPQRSSNRDPAPRGPARFLPLPGLPAAPPDPPGILAPEPPDVGSSDPLSMVEPSYGRSPSYTS
modifications: not fully specified; also: PEG: linear aminooxy-PEG
B5: bFGF-21-Q108-30KPEG (ligand)
chain: HPIPDSSPLLQFGGQVRQRYLYTDDAQETEAHLEIRADGTVVGAARQSPESLLELKALKPGVIQILGVKTSRFLCQGPDGKLYGSLHFDPKACSFRELLLEDGYNVY[Phe(4-Ac)](PEG 30 kDa)SETLGLPLRLPPQRSSNRDPAPRGPARFLPLPGLPAAPPDPPGILAPEPPDVGSSDPLSMVGPSYGRSPSYTS
B6: bFGF-21-Q108-30KPEG G170S (ligand)
chain: HPIPDSSPLLQFGGQVRQRYLYTDDAQETEAHLEIRADGTVVGAARQSPESLLELKALKPGVIQILGVKTSRFLCQGPDGKLYGSLHFDPKACSFRELLLEDGYNVY[Phe(4-Ac)](PEG 30 kDa)SETLGLPLRLPPQRSSNRDPAPRGPARFLPLPGLPAAPPDPPGILAPEPPDVGSSDPLSMVSPSYGRSPSYTS
B7: bFGF-21-Q108pAF-30KPEG-G170E (ligand)
chain: HPIPDSSPLLQFGGQVRQRYLYTDDAQETEAHLEIRADGTVVGAARQSPESLLELKALKPGVIQILGVKTSRFLCQGPDGKLYGSLHFDPKACSFRELLLEDGYNVY[Phe(4-Ac)](PEG 30 kDa)SETLGLPLRLPPQRSSNRDPAPRGPARFLPLPGLPAAPPDPPGILAPEPPDVGSSDPLSMVEPSYGRSPSYTS
B8: bFGF-21-R131-30KPEG (ligand)
chain: HPIPDSSPLLQFGGQVRQRYLYTDDAQETEAHLEIRADGTVVGAARQSPESLLELKALKPGVIQILGVKTSRFLCQGPDGKLYGSLHFDPKACSFRELLLEDGYNVYQSETLGLPLRLPPQRSSNRDPAP[Phe(4-Ac)](PEG 30 kDa)GPARFLPLPGLPAAPPDPPGILAPEPPDVGSSDPLSMVEPSYGRSPSYTS
modifications: not fully specified; also: PEG: linear aminooxy-PEG

[ ]: non-standard residue; d: D form. Phe(4-Ac) = CC(=O)c1ccc(C[C@H](N)C(=O)O)cc1

The target in the assay is beta Klotho and FGFR1c (Fibroblast Growth Factor Receptor isoform 1c) expressed on the cell surface of a proprietary stable cell line (HEK293). Put plainly: cell-based or functional assay.
In the case of B1, the EC50 (ng/mL), STEADY-GLO Elk1 luciferase reporter assay was determined as 537 ng/mL; the Emax (%) relative to WT bFGF-21, Elk1 luciferase reporter assay was 57%; the Fold loss potency relative to WT bFGF21, Elk1 luciferase reporter assay amounted to 14 fold.

For B2, the Average Fold Loss Potency Relative to bFGF-21-Q108-30KPEG, Elk1 luciferase reporter assay is 1.7 fold.

The molecule B3 came in with an Average Fold Loss Potency Relative to bFGF-21-Q108-30KPEG, Elk1 luciferase reporter assay of 8.7 fold.

For the molecule B4, the EC50 (ng/mL), STEADY-GLO Elk1 luciferase reporter assay was determined as 347 ng/mL; the Emax (%) relative to WT bFGF-21, Elk1 luciferase reporter assay turned out to be 50%; the Fold loss potency relative to WT bFGF21, Elk1 luciferase reporter assay amounted to 9 fold.

On to B5, for which the Average Fold Loss Potency Relative to bFGF-21-Q108-30KPEG, Elk1 luciferase reporter assay stood at 1 fold; the EC50 (ng/mL), STEADY-GLO Elk1 luciferase reporter assay turned out to be 147 ng/mL; the Emax (%) relative to WT bFGF-21, Elk1 luciferase reporter assay came to 73%; the Fold loss potency relative to WT bFGF21, Elk1 luciferase reporter assay came to 4 fold.

B6 registered an Average Fold Loss Potency Relative to bFGF-21-Q108-30KPEG, Elk1 luciferase reporter assay of 0.8 fold.

With B7, the Average Fold Loss Potency Relative to bFGF-21-Q108-30KPEG, Elk1 luciferase reporter assay came out at 3.7 fold.

B8 registered an EC50 (ng/mL), STEADY-GLO Elk1 luciferase reporter assay of 556 ng/mL; an Emax (%) relative to WT bFGF-21, Elk1 luciferase reporter assay of 38%; a Fold loss potency relative to WT bFGF21, Elk1 luciferase reporter assay of 14 fold.
